B1: CD2z CSR: chimeric stimulatory receptor: CD2 signal peptide, extracellular, transmembrane and cytoplasmic domains with CD3z intracellular domain (SEQ ID NO: 17062) (protein)
chain: MSFPCKFVASFLLIFNVSSKGAVSKEITNALETWGALGQDINLDIPSFQMSDDIDDIKWEKTSDKKKIAQFRKEKETFKEKDTYKLFKNGTLKIKHLKTDDQDIYKVSIYDTKGKNVLEKIFDLKIQERVSKPKISWTCINTTLTCEVMNGTDPELNLYQDGKHLKLSQRVITHKWTTSLSAKFKCTAGNKVSKESSVEPVSCPEKGLDIYLIIGICGGGSLLMVFVALLVFYITKRKKQRSRRNDEELETRAHRVATEERGRKPHQIPASTPQNPATSQHPPPPPGHRSQAPSHRPPPPGHRVQHQPQKRPPAPSGTQVHQQKGPPLPRPRVQPKPPHGAAENSLSPSSNRVKFSRSADAPAYKQGQNQLYNELNLGRREEYDVLDKRRGRDPEMGGKPRRKNPQEGLYNELQKDKMAEAYSEIGMKGERRRGKGHDGLYQGLSTATKDTYDALHMQALPPR

Tests used:
[1] = tested on: CD45RA, CD45RO, and CD62L; experiment: Memory phenotype by surface CD45RA, CD45RO and CD62L staining; type: cell-based, human; settings: WT and DKO CAR-T cells
From the text: WT CAR-T cells, DKO CAR-T cells, DKO CAR-T cells+CD2z, and DKO CAR-T cells+CD28z were stained for expression of surface CD45RA, CD45RO, and CD62L to define Tscm, Tcm, Tem, and Teff cells; Tscm (CD45RA^+CD45RO^−CD62L^+), Tcm (CD45RA^−CD45RO^+CD62L^+), Tem (CD45RA^−CD45RO^+CD62L^−), Teff (CD45RA^+CD45RO^−CD62L^−). […] This phenotype may have a negative impact on the in vivo functionality of these CAR T cells since they appear to be more differentiated.
Allo CAR-T cells with no CSR and Allo CAR-Ts with CSR that was delivered either stably or transiently were stained for expression of surface CD45RA, CD45RO, and CD62L to define Tscm, Tcm, Tem, and Teff cells; Tscm (CD45RA^+CD45RO^−CD62L), Tcm (CD45RA^−CD45RO^+CD62L^+), Tem (CD45RA^−CD45RO^+CD62L^−), Teff ([…]CD62L^−). All samples were performed in duplicate, and data is shown in bar graph where error bars represent standard deviation.

DKO CAR-T cells = experiment: Expansion of TCRb/b2M double-knockout (DKO) CAR-T cells after stimulation with agonist mAbs anti-CD2, anti-CD3 and anti-CD28; type: cell-based, human; settings: 16 day culture; CSR delivered in piggyBac transposon
From the text: FIGS. 9A-9B are a series of plots showing that piggyBac® delivery of CSR enhances the expansion of TCRb/b2M double-knockout CAR-T cells. Pan T cells isolated from normal donor blood were genetically modified using the piggyBac® DNA modification system in combination with the Cas-CLOVER™ gene-editing system. Cells were electroporated in a single reaction with a transposon encoding a CAR, selection gene and a CSR (either CD28z or CD2z), an mRNA encoding the super piggyBac™ transposase enzyme, an mRNA encoding Cas-CLOVER™, and multiple guide RNA (gRNA) targeting TCRb and b2M in order to knockout the TCR and MHCI (double-knockout; DKO). The cells were subsequently stimulated with agonist mAbs anti-CD2, anti-CD3 and anti-CD28, and were later selected for genetic modification over the course of a 16 day culture period. At the end of the initial culture period all T cells expressed the CAR, indicating successful selection for genetically-modified cells (data not shown).

Pan T cells = experiment: Surface expression of CSR and cellular activation (FSC-A, CD69) after mRNA electroporation of T cells; type: cell-based, human; settings: for cellular activation (FSC-A, CD69): absence of exogenous stimulation; for surface expression by flow cytometry: two days after electroporation of 10 μg mRNA
Protocol: Pan T cells from normal blood donors were stimulated with anti-CD3/anti-CD28 beads in standard T cell culture media, then rested. These cells were then electroporated (BTX ECM 830 electroporator @ 500V for 700 μs) with 10 μg of mRNA encoding either CD28 CSR, CD2 CSR, or wild-type CD19 control. Two days later the electroporated cells were examined by flow cytometry for surface-expression of each molecule and data are shown as stacked histograms. In addition, cell size (FSC-A) and CD69 expression was evaluated as a possible indication of cellular activation above the Mock electroporated control cells.

TCRb and b2M = experiment: Gene editing (knockout of TCR and MHCI) of Allo CAR-T cells with CSR; type: cell-based, human; settings: up to 14-day culture; CSR stable or transient
From the text: Pan T cells isolated from healthy donor blood were genetically modified using the piggyBac® DNA modification system in combination with the Cas-CLOVER™ gene-editing system (CC) to produce allogeneic (Allo) CAR-T cells. […] Following EP, all cells were subsequently stimulated with a cocktail of agonist mAbs anti-CD2, anti-CD3 and anti-CD28, and were later selected for genetic modification over the course of up to a 14-day culture period using the selection gene. At the end of the initial culture period, all T cells expressed the CAR, indicating successful selection for genetically-modified cells (data not shown). All samples were performed in duplicate, and data is shown in bar graph where error bars represent standard deviation.

human CD48 = target: T1, human CD48 (Homo sapiens, UniProt P09326); experiment: T cell degranulation (CD107a) against cells overexpressing CD48; type: cell-based; settings: 4-6 hours coculture; K562 or Rat2 cells
T1 construct: expressed in transfected cells; host or cells: K562 or Rat2 cells, electroporated/lipofected with mRNA
T1 sequence (P09326 27-220): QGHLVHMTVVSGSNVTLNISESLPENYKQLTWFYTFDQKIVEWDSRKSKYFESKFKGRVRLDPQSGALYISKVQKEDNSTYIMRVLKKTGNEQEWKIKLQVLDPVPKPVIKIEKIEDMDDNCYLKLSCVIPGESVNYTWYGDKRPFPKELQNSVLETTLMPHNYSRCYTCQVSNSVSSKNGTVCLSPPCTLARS
Protocol: FIG. 23D is a series of flow cytometry plots showing the expression of CD48, CD58 or CD59 on K562 and Rat2 cells. To confirm possible ligands for the CSR WT CD2z molecule, a panel of known and suspected ligands including human CD48, CD58, and CD59 were tested. Degranulation of engineered T cells was evaluated against the cell lines K562 and Rat2 that were made to overexpress the target ligands and confirmed for expression by FACS staining. Red histograms are unstained cells and blue histograms are cells that were electroporated/lipofected with mRNA and then stained for expression of the respective marker by FACS.
FIG. 23E is a bar graph showing that CSR CD2z recognizes human CD58, but not CD48 or CD59. To confirm possible ligands for the CSR WT CD2z molecule, a panel of known and suspected ligands including human CD48, CD58, and CD59 were tested. Degranulation of engineered T cells was evaluated against the cell lines K562 and Rat2 that were made to overexpress the target ligands and confirmed for expression by FACS staining. Cells were electroporated/lipofected with mRNA and then stained for expression of the respective marker by FACS. […] T cell degranulation is a surrogate of T cell killing that can be measured by FACS staining for intracellular CD107a expression following coculture with target cell lines expressing target antigen. […]

| Molecule | memory phenotype (Tscm, Tcm, Tem, Teff) [1] | expansion of the cells in comparison to DKO CAR-T cells alone (DKO CAR-T cells) | cellular activation (FSC-A, CD69) (Pan T cells) | surface expression by flow cytometry (Pan T cells) | degree of gene editing compared to Allo CAR-T cells produced without a CSR (TCRb and b2M) | degranulation (CD107a) against CD48 (human CD48) |
| --- | --- | --- | --- | --- | --- | --- |
| CD28z CSR: chimeric stimulatory receptor: CD28 signal peptide, extracellular, transmembrane and cytoplasmic domains with CD3z intracellular domain (SEQ ID NO: 17060) | significantly more differentiated, favoring Tcm and Tem cells | at least a two fold expansion | did not intrinsically activate the cells | Increased surface expression | – | – |
| B1 | comprised predominantly of exceptionally high levels of favorable Tscm and Tcm cells | at least a two fold expansion | did not intrinsically activate the cells | Increased surface expression | a similar or greater degree of gene editing | not against human CD48 or CD59 |
